Molecular target: the molecule itself
Test: SEC; Superdex 200 10/300 GL; protein dialysed in 20 mM HEPES pH 7.5, 50 mM NaCl, 10 mM β-mercaptoethanol, 10% glycerol, about 2 mg/ml; size by comparison with a standard curve

B1: StrepII-MYRF-319:577, the N-terminal fragment from the auto-processing of StrepII-MYRF-319:708-10xHis (domain or fragment, human, UniProt Q9Y2G1-2 319-577, looked up)
chain: PSPGLLQDSDSLSGSYLDPNYQSIKWQPHQQNKWATLYDANYKELPMLTYRVDADKGFNFSVGDDAFVCQKKNHFQVTVYIGMLGEPKYVKTPEGLKPLDCFYLKLHGVKLEALNQSINIEQSQSDRSKRPFNPVTVNLPPEQVTKVTVGRLHFSETTANNMRKKGKPNPDQRYFMLVVALQAHAQNQNYTLAAQISERIIVRASNPGQFESDSDVLWQRAQVPDTVFHHGRVGINTDRPDEALVVHGNVKVMGSLMHP
notes: Myelin regulatory factor MYRF (C11orf9), human, 1111-amino-acid-long isoform; numbers count on: the 1111-amino-acid isoform (NP_037411); Cloned in pET52b between BamHI and SacI; The C-terminal 10xHis stays on the other cleavage product; also called N-terminal fragment of MYRF-319:708; source: E. coli BL21 Star (DE3) pLysS, cut product of StrepII-MYRF-319:708-10xHis, purified (Ni-NTA flow-through, …)
stoichiometry N: 3

From publication PMC3742443, “A Bacteriophage Tailspike Domain Promotes Self-Cleavage of a Human Membrane-Bound Transcription Factor, the Myelin Regulatory Factor MYRF” (PLoS Biology, 2013)
